Experiments:
Assay in all cases: cell-based or functional assay
TrkA Y490/785F = TrkA Y490/785F (UniProt P04629)
TrkA Y490F = TrkA Y490F (UniProt P04629)
[1] = target: wild-type TrkA, baculovirus-expressed, activated (autophosphorylated) (UniProt P04629)
TrkA Y785F = TrkA Y785F (UniProt P04629)

SHP-1 (enzyme)
Trk tyrosine dephosphorylation on co-expression in insect cells (anti-pTyr blot) (TrkA Y490/785F): 8 fold
Trk tyrosine dephosphorylation on co-expression in insect cells (anti-pTyr blot) (TrkA Y490F): 8 fold
Trk tyrosine dephosphorylation on co-expression in insect cells (anti-pTyr blot) [1]: 8 fold
dephosphorylation of Trk at Y674/Y675 (phospho-specific anti-Trk antibodies, co-expression in insect cells) [1]: 10 fold
Trk tyrosine dephosphorylation on co-expression in insect cells (anti-pTyr blot) (TrkA Y785F): 8 fold

— US20020110800A1, “Use of SHP-1 and SHP-2 to detect compounds involved in neuronal survival” (McGill University, priority 1997, published 2002)
